{
  "source": "patent US7407671B2",
  "about": "“Temperature controlled solute delivery system” (Boston Scientific Scimed, Inc., priority 1998, dated 2008)",
  "molecules": {"B1": {"name": "ovalbumin: ovalbumin (M.w. 45,000 Da), model protein for bioactive proteins such as urokinase (protein, UniProt P01012 2-386, looked up)", "Ovalbumin": "GSIGAASMEFCFDVFKELKVHHANENIFYCPIAIMSALAMVYLGAKDSTRTQINKVVRFDKLPGFGDSIEAQCGTSVNVHSSLRDILNQITKPNDVYSFSLASRLYAEERYPILPEYLQCVKELYRGGLEPINFQTAADQARELINSWVESQTNGIIRNVLQPSSVDSQTAMVLVNAIVFKGLWEKAFKDEDTQAMPFRVTEQESKPVQMMYQIGLFRVASMASEKMKILELPFASGTMSMLVLLPDEVSGLEQLESIINFEKLTEWTSSNVMEERKIKVYLPRMKMEEKYNLTSVLMAMGITDVFSSSANLSGISSAESLKISQAVHAAHAEINEAGREVVGSAEAGVDAASVSEEFRADHPFLFCIKHIATNAVLFFGRCVSP"}},
  "assay": "Solute release from bonded HPC gel membranes (modified HPLC system)",
  "format": "physicochemical",
  "description": "Solute release tests were conducted in the same manner as for PNIPA gels, as described in Example 1. The solute release experiments were designed to model the actual conditions of catheter use, which entail therapeutic solute loading at room temperature (25° C.), insertion of the catheter into the patient at 37° C., and temperature induced enhanced solute release when the catheter is placed at a target location in the body. While the experimental design was generally successful in modeling the actual use of catheter, heat lost to the experimental apparatus tubing reduced the 37° C. test temperature to 33° C. Because the transition temperature of HPC is fairly sharp (in this case, 43° C.), the reduction of test temperature from 37° C. to 33° C. had little impact on the test results.\nSolute release experiments were conducted under four constant temperature conditions and three step change conditions. […] Thus, test temperatures below and above the transition temperature of HPC (43° C.) were used. […]",
  "data": [
    {"molecule": "B1", "values": [
      {"measurement": "solute released before the temperature change", "setting": "HPC gel membrane 0.66 mm, first two minutes at 24° C.", "value": 11, "unit": "%"},
      {"measurement": "solute released within the first 7 minutes of the test", "setting": "HPC gel membrane 0.66 mm, isothermal 24° C.", "value": "about 30%"},
      {"measurement": "solute released in the five minutes immediately after the temperature change", "setting": "HPC gel membrane 0.66 mm, step 24° C. to 46° C.", "value": 54, "unit": "%"},
      {"measurement": "solute released within the first 7 minutes of the test", "setting": "HPC gel membrane 0.66 mm, step 24° C. to 46° C. after about two minutes", "value": "about 65%"},
      {"measurement": "ratio of the area of the convective pulse to the area of the isothermal release curve", "setting": "triggered release from HPC gel", "value": "much greater for ovalbumin than for methyl orange or estradiol"}
    ]}
  ]
}
